Laboratory results published in patent US20240182536A1 (MURAL ONCOLOGY, published 2024).

B1: IL-18 variant G3Q, E6H, D54N, S55I, T63S, N91V (ligand)
chain: YFQKLHSKLSVIRNLNDQVLFIDQGNRPLFEDMTDSDMRDNAPRTIFIISMYKNIQPRGMAVSISVKSEKISTLSSENKIISFKEMNPPDVIKDTKSDIIFFQRSVPGHDNKMQFESSSYEGYFLASEKERDLFKLILKKEDELGDRSIMFTVQNED
B2: IL-18 variant G3Q, E6K, D54S, S55P, T63S, N91S, R104Q (ligand)
chain: YFQKLKSKLSVIRNLNDQVLFIDQGNRPLFEDMTDSDMRDNAPRTIFIISMYKSPQPRGMAVSISVKSEKISTLSSENKIISFKEMNPPDSIKDTKSDIIFFQQSVPGHDNKMQFESSSYEGYFLASEKERDLFKLILKKEDELGDRSIMFTVQNED
B3: IL-18 variant G3Q, E6G, D54N, S55H, T63V, N91M, R104T (ligand)
chain: YFQKLGSKLSVIRNLNDQVLFIDQGNRPLFEDMTDSDMRDNAPRTIFIISMYKNHQPRGMAVVISVKSEKISTLSSENKIISFKEMNPPDMIKDTKSDIIFFQTSVPGHDNKMQFESSSYEGYFLASEKERDLFKLILKKEDELGDRSIMFTVQNED
B4: IL-18 variant G3L, E6Q, T63S, N91L, R104T (ligand)
chain: YFLKLQSKLSVIRNLNDQVLFIDQGNRPLFEDMTDSDMRDNAPRTIFIISMYKDSQPRGMAVSISVKSEKISTLSSENKIISFKEMNPPDLIKDTKSDIIFFQTSVPGHDNKMQFESSSYEGYFLASEKERDLFKLILKKEDELGDRSIMFTVQNED
B5: IL-18 variant G3Q, E6N, D54Y, S55P, T63S, N91S, R104H (ligand)
chain: YFQKLNSKLSVIRNLNDQVLFIDQGNRPLFEDMTDSDMRDNAPRTIFIISMYKYPQPRGMAVSISVKSEKISTLSSENKIISFKEMNPPDSIKDTKSDIIFFQHSVPGHDNKMQFESSSYEGYFLASEKERDLFKLILKKEDELGDRSIMFTVQNED
B6: IL-18 variant G3E, E6H, R27S, D54A, S55T, T63S, N91F, R104S (ligand)
chain: YFEKLHSKLSVIRNLNDQVLFIDQGNSPLFEDMTDSDMRDNAPRTIFIISMYKATQPRGMAVSISVKSEKISTLSSENKIISFKEMNPPDFIKDTKSDIIFFQSSVPGHDNKMQFESSSYEGYFLASEKERDLFKLILKKEDELGDRSIMFTVQNED
B7: IL-18 variant G3E, E6G, N91M, R104A (ligand)
chain: YFEKLGSKLSVIRNLNDQVLFIDQGNRPLFEDMTDSDMRDNAPRTIFIISMYKDSQPRGMAVTISVKSEKISTLSSENKIISFKEMNPPDMIKDTKSDIIFFQASVPGHDNKMQFESSSYEGYFLASEKERDLFKLILKKEDELGDRSIMFTVQNED
B8: IL-18 variant G3Y, E6N, N91Y, R104S (ligand)
chain: YFYKLNSKLSVIRNLNDQVLFIDQGNRPLFEDMTDSDMRDNAPRTIFIISMYKDSQPRGMAVTISVKSEKISTLSSENKIISFKEMNPPDYIKDTKSDIIFFQSSVPGHDNKMQFESSSYEGYFLASEKERDLFKLILKKEDELGDRSIMFTVQNED
B9: IL-18 variant G3S, E6G, D54V, S55K, T63S, N91Y, R104T (ligand)
chain: YFSKLGSKLSVIRNLNDQVLFIDQGNRPLFEDMTDSDMRDNAPRTIFIISMYKVKQPRGMAVSISVKSEKISTLSSENKIISFKEMNPPDYIKDTKSDIIFFQTSVPGHDNKMQFESSSYEGYFLASEKERDLFKLILKKEDELGDRSIMFTVQNED
B10: IL-18 variant G3I, E6D, D54A, S55F, N91Y, R104H (ligand)
chain: YFIKLDSKLSVIRNLNDQVLFIDQGNRPLFEDMTDSDMRDNAPRTIFIISMYKAFQPRGMAVTISVKSEKISTLSSENKIISFKEMNPPDYIKDTKSDIIFFQHSVPGHDNKMQFESSSYEGYFLASEKERDLFKLILKKEDELGDRSIMFTVQNED

Legend:
[1] = molecular target: T1, IL-18 receptors on HEK-Blue IL-18 reporter cells (UniProt Q13478 19-541; O95256 20-599, limits assumed); experiment: cell-based or functional assay
T1 sequence (looked up) 1: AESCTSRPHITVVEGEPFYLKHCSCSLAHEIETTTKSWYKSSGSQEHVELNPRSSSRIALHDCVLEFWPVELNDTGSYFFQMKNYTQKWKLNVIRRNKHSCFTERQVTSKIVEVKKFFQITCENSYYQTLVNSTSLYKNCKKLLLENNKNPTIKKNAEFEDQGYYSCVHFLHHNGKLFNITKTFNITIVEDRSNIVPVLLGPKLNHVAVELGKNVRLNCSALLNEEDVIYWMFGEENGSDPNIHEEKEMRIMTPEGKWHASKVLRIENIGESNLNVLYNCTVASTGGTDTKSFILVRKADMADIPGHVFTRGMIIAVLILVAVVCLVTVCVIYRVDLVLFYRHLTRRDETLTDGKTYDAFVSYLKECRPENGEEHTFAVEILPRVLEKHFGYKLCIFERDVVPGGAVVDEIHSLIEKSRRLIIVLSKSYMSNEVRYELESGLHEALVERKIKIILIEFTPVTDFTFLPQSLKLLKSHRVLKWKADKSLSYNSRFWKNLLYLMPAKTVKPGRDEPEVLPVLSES
T1 sequence (looked up) 2: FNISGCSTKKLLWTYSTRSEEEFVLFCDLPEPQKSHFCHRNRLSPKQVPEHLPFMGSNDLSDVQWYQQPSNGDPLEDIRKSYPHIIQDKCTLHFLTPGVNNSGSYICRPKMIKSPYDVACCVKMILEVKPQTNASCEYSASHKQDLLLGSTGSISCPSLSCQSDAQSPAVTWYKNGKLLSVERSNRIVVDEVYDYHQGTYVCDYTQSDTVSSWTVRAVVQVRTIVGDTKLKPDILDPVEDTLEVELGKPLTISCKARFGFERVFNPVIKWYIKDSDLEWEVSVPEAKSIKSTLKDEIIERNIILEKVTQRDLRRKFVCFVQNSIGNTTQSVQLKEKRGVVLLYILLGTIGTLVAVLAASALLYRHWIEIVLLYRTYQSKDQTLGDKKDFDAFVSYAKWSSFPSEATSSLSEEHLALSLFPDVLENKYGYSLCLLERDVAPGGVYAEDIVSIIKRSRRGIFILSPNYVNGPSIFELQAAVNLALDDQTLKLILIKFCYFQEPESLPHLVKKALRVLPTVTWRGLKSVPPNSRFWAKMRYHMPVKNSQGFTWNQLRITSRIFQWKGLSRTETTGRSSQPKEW

[2] = molecular target: T2, IL-18 binding protein (IL-18BP) (UniProt O95998 31-194); experiment: cell-based or functional assay
T2 sequence (looked up): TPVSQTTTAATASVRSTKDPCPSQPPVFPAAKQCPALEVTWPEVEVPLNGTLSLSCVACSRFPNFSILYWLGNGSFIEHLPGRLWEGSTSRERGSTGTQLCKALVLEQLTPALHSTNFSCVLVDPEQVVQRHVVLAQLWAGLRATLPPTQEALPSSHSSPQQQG

Binder | Activity, No BP, DF-100000 [1] | Activity, No BP, DF-500000 [1] | Activity, No BP, DF-2500000 [1] | Activity, +100 nM BP, DF-1000002 [2] | Activity, +100 nM BP, DF-5000003 [2] | Activity, +100 nM BP, DF-25000004 [2] | Ratio (-BP/+BP), DF-1000005 [2] | Ratio (-BP/+BP), DF-5000006 [2] | Ratio (-BP/+BP), DF-25000007 [2]
B1 | 1.89 | 1.9 | 1.64 | 1.8 | 1.43 | 0.71 | 1.05 | 1.33 | 2.31
B2 | 1.92 | 1.92 | 1.4 | 1.55 | 1.15 | 0.45 | 1.24 | 1.67 | 3.14
B3 | 1.99 | 1.82 | 1.01 | 1.83 | 1.38 | 0.7 | 1.09 | 1.32 | 1.44
B4 | 2.12 | 2.01 | 1.85 | 1.81 | 1.15 | 0.46 | 1.17 | 1.75 | 4
B5 | 1.37 | 0.75 | 0.28 | 0.9 | 0.42 | 0.14 | 1.52 | 1.76 | 1.97
B6 | 2.08 | 1.83 | 1.14 | 1.8 | 1.11 | 0.41 | 1.16 | 1.65 | 2.79
B7 | 2.05 | 2 | 1.54 | 1.93 | 1.41 | 0.53 | 1.06 | 1.41 | 2.92
B8 | 1.87 | 1.79 | 1.54 | 1.78 | 1.2 | 0.6 | 1.05 | 1.5 | 2.59
B9 | 1.95 | 1.77 | 1.26 | 1.64 | 0.85 | 0.32 | 1.19 | 2.08 | 3.88
B10 | 2.1 | 1.96 | 1.34 | 2.05 | 1.45 | 0.74 | 1.02 | 1.35 | 1.81
